Results taken from IntAct's records for PubMed 22382979.

B1: Proliferating cell nuclear antigen (Saccharomyces cerevisiae), P15873 (parent)
chain: MLEAKFEEASLFKRIIDGFKDCVQLVNFQCKEDGIIAQAVDDSRVLLVSLEIGVEAFQEYRCDHPVTLGMDLTSLSKILRCGNNTDTLTLIADNTPDSIILLFEDTKKDRIAEYSLKLMDIDADFLKIEELQYDSTLSLPSSEFSKIVRDLSQLSDSINIMITKETIKFVADGDIGSGSVIIKPFVDMEHPETSIKLEMDQPVDLTFGAKYLLDIIKGSSLSDRVGIRLSSEAPALFQFDLKSGFLQFFLAPKFNDEE
B2: ATP-dependent DNA helicase SRS2 (Saccharomyces cerevisiae), P12954 (parent)
chain: MSSNNDLWLHLVSQLNTQQRAAALFDYTRGLQVIAGPGTGKTKVLTSRVAYLILHHHIHPRDIIVTTFTNKAANEMKERLQEMLRGAGVNISELLIGTFHSICLKILYRFGHLVDLQKDWRIIDEKEIDVILDDMIEKVPDQIRDYASSITRKVNLCMPSKNGDEWTIHPKLIKKQISKLKSNAILPEEYILDSNHDAALGYFYQIYQSELSKKNTLDFDDLLMYTFRLLTRVRVLSNIKHVLVDEFQDTNGIQLDLMFLFAKGNHHLSRGMTIVGDPDQSIYAFRNALAHNFLEMGRKCPIEYSTIILVENYRSSQKILNTSEILITQQNKGRQNRAPLRAQFDLDFPPVYMNFPAYFLEAPSLVRELLYLKALPNLFTFNDFAILVRQRRQIKRIESALIEHRIPYKIIRGHSFWDSKETRAMLNLLKLIFSPNDKHAILASLLYPARGLGPATGEKIKNALDTLATDVSCFQILKDISSKKIMLDIPTKGRSVIADFISMIENCQLLLQSTLLGGLSDLFDKLYELSGLKYEYLYKDGKKKNDQLEKSEPNLLNARHKNIELLKNYFLALLSKSESSDKEKNEAIKAATDEAEPIENKVITPKEYLRNFFNSLSLHSDAAEEEESESNKDAKIKREKNGFVTISTIHGAKGLEWPVVFIPGCEEGIIPCVFNDDKKDESEEDEEEDQENSKKDASPKKTRVLSVEDSIDEERRMFFVAQTRAKYLLYLSNTVTVEDVDRPRIASRFLTTDLIKAMSDSQKLFESTNSIKKLYRILNKKPPAEDDKLFSLDQLRKDYNQFIENRRERMIWQGIQMNDVYGIQLSRNKLLGSVSDFTSAADQLRLETQNSIFPQKKLIEKSRPSKINGNYAPKSRVKSPEKRYAPETTSFHSPTKKKVYAPQYVSTTNVPSRQEFHSSTGKNIPFLRREDRSITDISPRSSTRSLKGASPNKTSHMSDDLMRPSPTRKDKVTRNIHFATAGTFRIETQSNVDELHPPEYSNKSGQSLTSSEFSGFSSACSNSDQPTNLIEDINNELDLSDEELLNDISIERRRELLGSKKTKKIKPKTRNRKSKRGDKVKVEEVIDLKSEFEEDDSRNTTAAELLHNPDDTTVDNRPIISNAKFLADAAMKKTQKFSKKVKNEPASSQMDIFSQLSRAKKKSKLNNGEIIVID
B3: Proliferating cell nuclear antigen (Saccharomyces cerevisiae), P15873 (parent)
chain: B1 chain
partner: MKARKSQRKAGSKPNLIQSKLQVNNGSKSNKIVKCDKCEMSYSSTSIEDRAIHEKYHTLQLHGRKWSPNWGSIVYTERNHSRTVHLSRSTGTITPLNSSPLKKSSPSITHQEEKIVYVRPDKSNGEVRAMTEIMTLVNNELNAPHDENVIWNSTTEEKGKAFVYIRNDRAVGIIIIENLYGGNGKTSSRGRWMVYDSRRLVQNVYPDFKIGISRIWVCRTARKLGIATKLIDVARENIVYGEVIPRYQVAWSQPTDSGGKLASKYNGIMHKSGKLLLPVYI

Variants of: B1
Settings: with srs2_yeast SRS2, P12954

Effect of a mutation on the interaction, decreasing interaction:
MLEAKFEEASLFKRIIDGFKDCVQLVNFQCKEDGIIAQAVDDSRVLLVSLEIGVEAFQEYRCDHPVTLGMDLTSLSKILRCGNNTDTLTLIADNTPDSIILLFEDTKKDRIAEYSLKLMDIDADAAAAEELQYDSTLSLPSSEFSKIVRDLSQLSDSINIMITKETIKFVADGDIGSGSVIIKPFVDMEHPETSIKLEMDQPVDLTFGAKYLLDIIKGSSLSDRVGIRLSSEAPALFQFDLKSGFLQFFLAPKFNDEE [F125A;L126A;K127A;I128A]

Variants of: B2
Settings: with pcna_yeast POL30, P15873

Effect of a mutation on the interaction, decreasing interaction:
Q1149E
Q1149E;I1152A
D1151A
I1152A
I1152A;L1156A
F1153A
Q1155E
L1156A

Variants of: B2
Settings: with smt3_yeast SMT3, Q12306
smt3_yeast SMT3, Q12306, sequence (Q12306 whole entry): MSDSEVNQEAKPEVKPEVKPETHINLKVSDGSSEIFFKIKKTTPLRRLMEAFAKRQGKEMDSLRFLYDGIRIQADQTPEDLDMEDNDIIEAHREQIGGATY

Effect of a mutation on the interaction, decreasing interaction:
Q1149E;I1152A
I1152A
I1152A;L1156A
L1156A

Variants of: B3
Settings: with eco1_yeast ECO1, P43605

Effect of a mutation on the interaction, decreasing interaction:
MLEAKFEEASLFKRIIDGFKDCVQLVNFQCKEDGIIAQAVDDSRVLLVSLEIGVEAFQEYRCDHPVTLGMDLTSLSKILRCGNNTDTLTLIADNTPDSIILLFEDTKKDRIAEYSLKLMDIDADAAAAEELQYDSTLSLPSSEFSKIVRDLSQLSDSINIMITKETIKFVADGDIGSGSVIIKPFVDMEHPETSIKLEMDQPVDLTFGAKYLLDIIKGSSLSDRVGIRLSSEAPALFQFDLKSGFLQFFLAPKFNDEE [F125A;L126A;K127A;I128A]
